Experimental data taken from the supplement of paper PMC10567573.
± gives the standard deviation.

Assay: protein stability index of a GFP-peptide fusion (GPS, HEK-293T) (PSI 1-6); higher = more stable
[1] = treatment: DMSO, c terminus: a fixed tail appended
[2] = treatment: MLN4924 1 uM, 8 h, c terminus: a fixed tail appended
[3] = treatment: DMSO, c terminus: native
[4] = treatment: MLN4924 1 uM, 8 h, c terminus: native
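Further: 24-mer peptide tiles fused after GFP, lentivirally expressed, FACS-sorted into six equal bins by GFP/DsRed ratio, decoded by Illumina sequencing, PSI is the read-weighted mean bin number.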

Sequence	protein stability index [1]	protein stability index [2]	protein stability index [3]	protein stability index [4]
FRPGHLLANACLPVRTTNKISKQF [ZSWIM9]	2.78 ± 0.12	2.8 ± 0.19	–	–
RAALISRRHLQFWKSHLRNVQRPL [RHOBTB2]	2.56 ± 0.13	2.56 ± 0.22	–	–
YWEAWRHHCQGKDLTEWVDGCDF [SPACA3]	–	–	2.84 ± 0.15	3.04 ± 0.25
DRSDYFAAWGARVFSFGKHYWELD [TRIM43]	2.14 ± 0.44	2.15 ± 0.57	–	–
PCPLGEPKTQACSGSESPSDSGKD [MYCL]	5.41 ± 0.24	5.41 ± 0.17	–	–
VTSYCRSATLVGFTVGSVLGQILV [SLC19A2]	3.5 ± 0.39	2.84 ± 0.6	–	–
HLEINPDHPIVETLRQKAEADKND [HSP90AB1]	5.58 ± 0.2	5.56 ± 0.1	–	–
WEKVGSGGFGQVYKVRHVHWKTWL [RIPK4]	–	2.24 ± 0.21	–	–
CPQCGKCFARKSQLTGHQRIHSGE [ZNF449]	5.1 ± 0.3	5.16 ± 0.087	–	–
LKQNFSKSWHDMQTTTAYKKTHET [TPD52L1]	3.6 ± 0.25	3.96 ± 0.24	–	–
KQYAMQRPNDDSLAFLDKIKSVKE [IQUB]	3.64 ± 0.35	3.87 ± 0.3	–	–
PSDLDLVMSEGLGMRYAFIGPLET [CRYL1]	2.46 ± 0.63	2.6 ± 0.39	–	–
DEGASAGQGPKPEADSQEQGHPQT [GAGE1]	5.71 ± 0.1	5.48 ± 0.37	–	–
RQVPGSDPACYEFLWGPRALIETS [MAGEA6]	2.62 ± 0.56	2.85 ± 0.35	–	–
LSDDYEQVRSAAVQLIWVVSQLYP [INTS4]	2.08 ± 0.43	2.13 ± 0.45	–	–
DLRKHRRKLLSPVSREENREDKAT [PPFIA4]	4.52 ± 0.18	4.84 ± 0.3	–	–
GCLKMNPDDRLTCSQLLESSYFDS [CDKL4]	3.4 ± 0.45	3.54 ± 0.21	–	–
DPSGKGKGKAGRVDLVDESGYVSG [TPPP]	5.1 ± 0.42	5.27 ± 0.16	–	–
SWLEENVHEVLQAVDAGDPAVEAC [TCF25]	4.86 ± 0.14	4.84 ± 0.32	–	–
KVEQAKKPSFQSGGRRRPPASSRN [RBMY1A1]	4.628 ± 0.025	4.73 ± 0.084	–	–
GIEPLYIKAEPASPDSPKGSSETE [ESRRA]	5.57 ± 0.21	5.36 ± 0.33	–	–
NLFFAWIKIFKYISFNKTMTQLSS [PKD2L1]	3.05 ± 0.49	2.99 ± 0.44	–	–
SLKRHLKTHTGEKPHRCHNCGKSF [ZNF449]	2.91 ± 0.56	2.97 ± 0.15	–	–

Sequence	protein stability index [1]	protein stability index [2]	protein stability index [3]	protein stability index [4]
LFEGMIWFLVPISSVICNDITAYL [CDS1]	3.91 ± 0.42	3.38 ± 0.86	–	–
EGPMEEEEAQPMAAPEGKRSLANG [EID1]	5.66 ± 0.25	5.58 ± 0.21	–	–
HRQETVDCLKKFNARRKLKGAILT [CAMK2D]	2.69 ± 0.52	2.71 ± 0.22	–	–
LDLIFHVALPTEAEFQLVRDVVLC [TENT5C]	2.98 ± 0.27	2.68 ± 0.73	–	–
LKDLLLQVGRGLRYIHSMSLVHMD [WEE1]	2.64 ± 0.74	2.85 ± 0.69	–	–
EEAGSQENHPQESKGQPRSQEESE [CHGB]	5.57 ± 0.25	5.64 ± 0.17	–	–
RTVNALEIELQAQHNLRYSLENTL [KRT33B]	2.31 ± 0.25	2.29 ± 0.22	–	–
EVVPIHGRGNFPTLEITLKDIVQT [TENT5C]	3.5 ± 0.31	3.39 ± 0.27	–	–
IHPKNPHAPTIHFNYRYFEVEEAD [CPOX]	3.75 ± 0.18	3.88 ± 0.17	–	–
SSEEFEDKWFRKIKDHFCPFENQF [C8orf76]	2.87 ± 0.19	2.74 ± 0.5	–	–
RNLLVENIIDIYKQESTRPEKKSD [TRIM55]	4.42 ± 0.51	4.73 ± 0.11	–	–
NESTVCLMSYERRQILHLITMMAL [TENT5D]	2.3 ± 0.47	2.1 ± 0.2	–	–
FWLQNSSPSSDRVSAIIWEGNECK [PHTF1]	2.41 ± 0.32	3.07 ± 0.4	–	–
LSEGCRAELAETIVYARVLALHPE [CCDC3]	2.92 ± 1.4	1.83 ± 0.38	–	–
FDETSSATTISTSEDGSYGTDVTR [KMT2E]	5.34 ± 0.24	5.49 ± 0.17	–	–
NTGYRLQNNENNISCVERGWSTPP [CFHR2]	3.67 ± 0.19	3.66 ± 0.22	–	–
TDKVGTEAAFHPIEEYMVHVEEHF [FUT8]	4.07 ± 0.27	4.31 ± 0.33	–	–
SGGQTSWDSGCLAPPSTRTSHSLP [PLEKHN1]	4.1 ± 0.068	3.98 ± 0.21	–	–
WEEWQFLSPAQKDLYRDVMLENYS [ZNF649]	3.48 ± 0.35	3.6 ± 0.2	–	–
LREMCALSFQEELLYWGIAEDHLD [KCNG1]	2.27 ± 0.27	2.26 ± 0.22	–	–
LNEEINIASSDSEVEIVGVQEHAR [C18orf25]	5.27 ± 0.1	5.33 ± 0.18	–	–
KDLDGMDADILGLKKSNSAPSKKA [FBF1]	5.03 ± 0.22	5 ± 0.18	–	–
VLGAHRGHPVGLALEAAVHVQKLS [TRIM14]	2.63 ± 0.3	2.91 ± 0.26	–	–

Sequence	protein stability index [1]	protein stability index [2]	protein stability index [3]	protein stability index [4]
SFVDKLLDLMPRLMTSKPAEVVKI [INTS4]	2.73 ± 0.64	2.61 ± 0.63	–	–
YSGAYGASVSDEELKRRVAEELAL [CHCHD3]	3.11 ± 0.52	3.53 ± 1.1	–	–
SFVVLLYILDNETNFVVQVSVFIG [CLPTM1]	3.15 ± 0.41	3.39 ± 0.56	–	–
FMKYVDSNLCCFIPGKVIDEIYRV [FBXO28]	2.99 ± 0.91	2.65 ± 0.4	–	–
VGGYFVDKFVATMYHYLQFAYYKL [P3H4]	3.67 ± 0.73	2.56 ± 0.048	–	–
RLEAARLSLEEELSRVKAAALSER [LRRC45]	3.71 ± 0.21	4.04 ± 0.39	–	–
LGSFESPANSETSDLTLYLVVAVA [PCDHGA10]	2.66 ± 0.87	2.67 ± 0.48	–	–
VASYILASHNGISYKDLDVIFGVE [TENT5D]	2.93 ± 0.85	2.89 ± 1.4	–	–
GHGSHSFIYYENMLLGVPRLRQLK [PKD2L1]	2.17 ± 0.12	2.27 ± 0.034	–	–
PQRYPACAQMLPPNLSPHAPWNYH [TRAF3IP2]	2.31 ± 0.37	2.11 ± 0.25	–	–
GLFFPPQLNGTANDTAGPELPDPL [NFE2L1]	4.29 ± 0.27	4.45 ± 0.23	–	–
DLHCVLVTNPHSSQWKDPALSQLI [GADD45A]	2.23 ± 0.26	2.3 ± 0.16	–	–
LQGLSLIVTWFMLLYAQGLLAIQF [SLC19A2]	3.16 ± 0.26	3.16 ± 0.26	–	–
KAEELDRRERELQHAALGGTATRQ [SCAMP3]	5.15 ± 0.12	5.21 ± 0.22	–	–
PELPEGHLEDWLEKRAKRLSSAPS [ZMAT5]	4.32 ± 0.12	5.14 ± 0.14	–	–
RKSVRYTRQKKNLPDSPLRFDGLP [TRIM15]	3.59 ± 0.19	3.66 ± 0.12	–	–
ISEKLTLLPTLYEIHSKTTAYSRL [RNF180]	2.51 ± 0.29	2.06 ± 0.085	–	–
RQITSPVSGINGDIRAKKIASIAD [HNF4A]	4.1 ± 0.25	4.13 ± 0.2	–	–
SAEWFITAVGAILAGGLCVGIYAT [ACSBG2]	3.53 ± 0.57	3.18 ± 0.091	–	–
RSLLLKYARTPTLDPDTMHARLRL [TRIM14]	2.45 ± 0.35	2.37 ± 0.44	–	–
NPFAKGFRENGRNCKRERDARVKR [TBX6]	4.1 ± 0.24	4.09 ± 0.36	–	–
LIGRPGNKTQQVIHIIDFGLAKEY [CSNK1G3]	2.38 ± 0.69	2.4 ± 0.43	–	–
LREINFKIVEFNPMVLKGKIRPDS [GLT8D2]	2.39 ± 0.34	2.41 ± 0.41	–	–

Sequence	protein stability index [1]	protein stability index [2]	protein stability index [3]	protein stability index [4]
GTDGYMPRELASMSLVLHGNNLLV [KLHDC10]	2.72 ± 0.68	2.35 ± 0.56	–	–
SPCLPEAEAMFAINADGVGDAKD [RAD51]	–	–	5.38 ± 0.16	5.34 ± 0.14
SNLLKAGFIRHTVNKITFSEQCYY [DVL3]	2.3 ± 0.39	2.39 ± 0.3	–	–
MVEADHPGKLFIGGLNRETNEKML [RBMY1A1]	3.91 ± 0.23	3.92 ± 0.093	–	–
GPLLDSLYWTKWYNNQSLGHGSHS [PKD2L1]	2.51 ± 0.16	2.47 ± 0.38	–	–
PVACGSVLSEGSPLTEQEESSPSH [SRPK2]	5.52 ± 0.17	5.51 ± 0.17	–	–
NQRAMDLYKALGAQDLTEAEGWHF [SAT2]	3.28 ± 0.25	3.14 ± 0.28	–	–
MMELGSRSRGASQKKQKLEQKAAG [FATE1]	4.76 ± 0.19	4.87 ± 0.49	–	–
VVKYRRPMDVYETGIEYIVAQGPT [ADAMTSL2]	2.13 ± 0.5	2.25 ± 0.46	–	–
NVGGALYYTTMQTLTKQDTMLKAM [KCTD10]	2.6 ± 0.35	2.38 ± 0.54	–	–
LKSQPLPLRSSLPISLQATPATPA [TFE3]	3.92 ± 0.14	4 ± 0.26	–	–
AEMLGSVVGNWQYFFPVIFSKASD [MAGEA6]	2.37 ± 0.31	2.31 ± 0.31	–	–
STSRHVMAPVMAHVDPEEPWSPCS [ADAMTS4]	4.32 ± 0.14	4.41 ± 0.17	–	–
IMTVKEDQFSALGLDPCLLEDELD [SLC6A17]	4.45 ± 0.33	4.46 ± 0.3	–	–
LGLPYYETSVFDQFGIKDVFDNAI [RHOBTB1]	2.34 ± 0.28	2.45 ± 0.42	–	–
ADRIIEVDMECQTDAFLDRPPTPL [RSPH3]	4.3 ± 0.29	4.25 ± 0.28	–	–
AFGNPKFALQGLPLNCAPCPRRSE [IRX6]	4.202 ± 0.038	4.08 ± 0.13	–	–
NTNPKEVQEMRNKIREQNLQDIKT [ADD1]	4.98 ± 0.18	5.11 ± 0.13	–	–
YTNSAGVPSLNAALMHTLQRHRDI [GOSR1]	2.79 ± 0.15	2.92 ± 0.23	–	–
KTTGLEEAAEAETAKDNGEAEDQE [SRPK2]	5.69 ± 0.14	5.73 ± 0.24	–	–
